Reference: US20020164690A1
One block for each substance: values may come before it.

How the values were obtained:
[1] = molecular target: human IL-13 (human) (UniProt P35225); experiment: cell-based or functional assay
[2] = molecular target: human IL-4 (human) (UniProt P05112); experiment: cell-based or functional assay
[3] = molecular target: CNTFRα:β1 (CNTFRα and gp130) on PC12D cells (UniProt Q08406); experiment: Scatchard analysis of 125I-CNTF saturation binding on PC12D cells, two-site fit; high affinity site, interpreted as the intermediate of CNTF, CNTFRα and gp130
Sequence of CNTFRα:β1 (CNTFRα and gp130) on PC12D cells (Q08406 23-342 limits assumed, chain 1 of 2): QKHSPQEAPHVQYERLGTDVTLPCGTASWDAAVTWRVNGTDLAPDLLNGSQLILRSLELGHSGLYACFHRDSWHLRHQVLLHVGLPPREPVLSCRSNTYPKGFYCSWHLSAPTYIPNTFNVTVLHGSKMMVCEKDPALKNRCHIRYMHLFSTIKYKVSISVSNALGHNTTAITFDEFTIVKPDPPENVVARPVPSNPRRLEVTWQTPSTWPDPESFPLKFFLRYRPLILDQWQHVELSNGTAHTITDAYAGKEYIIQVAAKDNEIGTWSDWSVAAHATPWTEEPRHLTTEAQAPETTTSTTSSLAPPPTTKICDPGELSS
Sequence of CNTFRα:β1 (CNTFRα and gp130) on PC12D cells (P40190 23-918 limits assumed, chain 2 of 2, further chain): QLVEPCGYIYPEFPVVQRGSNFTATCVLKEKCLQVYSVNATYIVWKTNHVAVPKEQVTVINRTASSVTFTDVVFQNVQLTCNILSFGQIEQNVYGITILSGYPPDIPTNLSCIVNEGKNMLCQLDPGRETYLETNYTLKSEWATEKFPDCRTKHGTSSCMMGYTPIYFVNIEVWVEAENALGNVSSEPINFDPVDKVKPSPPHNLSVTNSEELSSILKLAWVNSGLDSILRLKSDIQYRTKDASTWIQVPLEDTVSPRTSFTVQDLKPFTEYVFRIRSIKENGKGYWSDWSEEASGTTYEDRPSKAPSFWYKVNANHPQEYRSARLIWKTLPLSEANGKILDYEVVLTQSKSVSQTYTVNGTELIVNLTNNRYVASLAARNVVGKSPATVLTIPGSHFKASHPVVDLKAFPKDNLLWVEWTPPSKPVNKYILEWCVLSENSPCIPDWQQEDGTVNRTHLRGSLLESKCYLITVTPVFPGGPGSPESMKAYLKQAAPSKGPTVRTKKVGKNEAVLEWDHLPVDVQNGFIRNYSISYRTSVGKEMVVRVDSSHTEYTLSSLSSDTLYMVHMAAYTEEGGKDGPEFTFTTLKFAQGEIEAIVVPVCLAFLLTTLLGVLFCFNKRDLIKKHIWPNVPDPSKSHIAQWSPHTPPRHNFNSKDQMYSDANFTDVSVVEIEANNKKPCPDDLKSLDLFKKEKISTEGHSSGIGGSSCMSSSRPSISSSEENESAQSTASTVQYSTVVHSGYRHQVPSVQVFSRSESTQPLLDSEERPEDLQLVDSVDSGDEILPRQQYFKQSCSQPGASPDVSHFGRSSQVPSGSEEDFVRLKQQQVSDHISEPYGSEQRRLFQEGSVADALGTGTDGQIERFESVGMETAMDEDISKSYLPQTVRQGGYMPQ

[4] = molecular target: CNTF receptor on EW-1 cells (CNTFRα, gp130 and LIFRβ) (UniProt P26992); experiment: Scatchard analysis on EW-1 cells, two-site fit; site not assigned in words
Sequence of CNTF receptor on EW-1 cells (CNTFRα, gp130 and LIFRβ) (P26992 23-342 limits assumed, chain 1 of 3): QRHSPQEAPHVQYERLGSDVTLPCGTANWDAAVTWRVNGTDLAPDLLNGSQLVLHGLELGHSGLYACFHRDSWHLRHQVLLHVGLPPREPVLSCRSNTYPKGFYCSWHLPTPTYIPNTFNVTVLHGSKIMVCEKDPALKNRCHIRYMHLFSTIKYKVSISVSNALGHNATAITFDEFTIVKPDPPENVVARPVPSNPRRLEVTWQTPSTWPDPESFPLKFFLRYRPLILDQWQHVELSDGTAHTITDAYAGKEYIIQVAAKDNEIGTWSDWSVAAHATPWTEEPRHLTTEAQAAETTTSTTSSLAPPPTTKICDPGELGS
Sequence of CNTF receptor on EW-1 cells (CNTFRα, gp130 and LIFRβ) (P40189 23-918 limits assumed, chain 2 of 3, further chain): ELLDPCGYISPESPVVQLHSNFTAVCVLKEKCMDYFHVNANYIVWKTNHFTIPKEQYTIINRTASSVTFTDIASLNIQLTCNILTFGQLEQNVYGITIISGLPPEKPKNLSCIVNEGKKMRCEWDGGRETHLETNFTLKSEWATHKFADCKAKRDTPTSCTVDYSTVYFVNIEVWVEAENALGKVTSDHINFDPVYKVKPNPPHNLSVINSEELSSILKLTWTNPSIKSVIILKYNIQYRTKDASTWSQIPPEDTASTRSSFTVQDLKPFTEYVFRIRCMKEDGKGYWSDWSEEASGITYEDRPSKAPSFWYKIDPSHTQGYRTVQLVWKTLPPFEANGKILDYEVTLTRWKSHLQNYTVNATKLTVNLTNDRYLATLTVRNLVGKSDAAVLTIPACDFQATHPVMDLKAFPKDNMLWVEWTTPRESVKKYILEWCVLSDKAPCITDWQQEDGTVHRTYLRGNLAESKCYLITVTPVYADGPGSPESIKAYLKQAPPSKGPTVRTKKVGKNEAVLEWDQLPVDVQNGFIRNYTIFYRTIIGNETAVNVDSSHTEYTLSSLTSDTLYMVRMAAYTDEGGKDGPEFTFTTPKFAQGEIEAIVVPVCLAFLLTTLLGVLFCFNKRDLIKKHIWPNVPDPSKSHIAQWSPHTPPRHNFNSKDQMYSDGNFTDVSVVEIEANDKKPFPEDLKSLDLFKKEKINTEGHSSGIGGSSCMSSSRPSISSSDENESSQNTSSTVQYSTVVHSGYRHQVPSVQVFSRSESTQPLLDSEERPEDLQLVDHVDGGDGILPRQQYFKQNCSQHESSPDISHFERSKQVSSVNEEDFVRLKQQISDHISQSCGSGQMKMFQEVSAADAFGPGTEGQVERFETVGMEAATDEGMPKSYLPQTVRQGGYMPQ
Sequence of CNTF receptor on EW-1 cells (CNTFRα, gp130 and LIFRβ) (P42702 45-1097 limits assumed, chain 3 of 3, further chain): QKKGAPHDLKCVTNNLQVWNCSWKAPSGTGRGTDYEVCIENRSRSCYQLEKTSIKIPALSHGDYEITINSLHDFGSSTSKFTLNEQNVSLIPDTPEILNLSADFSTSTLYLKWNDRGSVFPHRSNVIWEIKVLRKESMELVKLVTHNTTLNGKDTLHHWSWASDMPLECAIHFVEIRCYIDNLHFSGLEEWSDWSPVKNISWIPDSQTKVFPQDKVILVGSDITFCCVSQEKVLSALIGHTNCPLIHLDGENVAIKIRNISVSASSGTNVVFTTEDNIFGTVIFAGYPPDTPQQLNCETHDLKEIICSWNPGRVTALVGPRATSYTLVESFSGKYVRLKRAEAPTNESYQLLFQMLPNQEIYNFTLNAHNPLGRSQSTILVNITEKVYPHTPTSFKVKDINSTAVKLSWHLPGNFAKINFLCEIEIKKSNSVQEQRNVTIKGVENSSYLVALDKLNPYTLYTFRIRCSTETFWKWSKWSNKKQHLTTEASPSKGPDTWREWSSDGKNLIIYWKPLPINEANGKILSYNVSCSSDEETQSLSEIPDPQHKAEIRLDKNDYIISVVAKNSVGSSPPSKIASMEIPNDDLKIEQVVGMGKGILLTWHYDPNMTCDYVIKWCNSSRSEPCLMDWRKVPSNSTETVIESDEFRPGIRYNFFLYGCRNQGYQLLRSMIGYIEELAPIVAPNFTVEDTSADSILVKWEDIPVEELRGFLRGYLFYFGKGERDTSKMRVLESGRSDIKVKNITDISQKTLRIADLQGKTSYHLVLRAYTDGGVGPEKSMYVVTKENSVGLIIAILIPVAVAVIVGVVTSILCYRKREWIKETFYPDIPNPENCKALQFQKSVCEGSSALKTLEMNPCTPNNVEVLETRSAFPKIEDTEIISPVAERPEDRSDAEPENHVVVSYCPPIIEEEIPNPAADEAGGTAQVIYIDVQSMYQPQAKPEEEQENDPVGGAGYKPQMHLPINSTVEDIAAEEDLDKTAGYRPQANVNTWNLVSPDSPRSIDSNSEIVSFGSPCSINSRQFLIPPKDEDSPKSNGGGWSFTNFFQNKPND

[5] = molecular target: CNTFRα on PC12D cells (UniProt Q08406); experiment: Scatchard analysis of 125I-CNTF saturation binding on PC12D cells, two-site fit; low affinity site, said to correspond to CNTF with CNTFRα
Sequence of CNTFRα on PC12D cells (Q08406 23-342 limits assumed): as the sequence (Q08406 23-342 limits assumed, chain 1 of 2) above

[6] = molecular target: recombinant human IL-1 (human); experiment: cell-based or functional assay

Sequence of human IL-4 (human) (P05112 25-153 limits assumed): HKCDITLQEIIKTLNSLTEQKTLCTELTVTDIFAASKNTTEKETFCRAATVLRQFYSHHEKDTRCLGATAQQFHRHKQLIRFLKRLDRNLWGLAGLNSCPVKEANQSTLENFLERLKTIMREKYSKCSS
Sequence of human IL-13 (human) (P35225 35-146 limits assumed): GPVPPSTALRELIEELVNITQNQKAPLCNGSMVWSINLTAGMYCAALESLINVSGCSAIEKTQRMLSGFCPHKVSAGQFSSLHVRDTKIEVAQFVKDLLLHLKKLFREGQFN
Sequence of IL-1-RI.Fc (P14778 18-336): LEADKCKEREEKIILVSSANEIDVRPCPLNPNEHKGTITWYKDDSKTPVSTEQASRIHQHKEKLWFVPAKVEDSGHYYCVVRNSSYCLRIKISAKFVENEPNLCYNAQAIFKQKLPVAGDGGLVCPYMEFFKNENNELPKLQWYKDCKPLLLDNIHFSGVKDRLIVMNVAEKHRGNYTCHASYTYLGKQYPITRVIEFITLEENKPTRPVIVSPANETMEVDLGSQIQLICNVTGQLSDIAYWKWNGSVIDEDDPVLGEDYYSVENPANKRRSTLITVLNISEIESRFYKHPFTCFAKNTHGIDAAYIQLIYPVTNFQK

- TF1 bioassay: IL-13 concentration at which growth is inhibited by 50% (10 nM trap) [1]: 4 to 5 nM
- TF1 bioassay: IL-13 concentration up to which 10 nM trap blocks growth [1]: 2 nM
- TF1 bioassay: IL-4 concentration at which growth is inhibited by 50% (10 nM trap) [2]: 3 to 4 nM
- TF1 bioassay: IL-4 concentration up to which 10 nM trap blocks growth [2]: 1 nM
Substance: IL-13Rα1.IL-4Rα.Fc (from UniProt P78552 22-343; P24394 26-232) (Fc fusion)

- TF1 bioassay: IL-13 concentration at which growth is inhibited by 50% (10 nM trap) [1]: 4 to 5 nM
- TF1 bioassay: IL-13 concentration up to which 10 nM trap blocks growth [1]: 2 nM
Substance: IL-4Rα.IL-13Rα1.Fc (from UniProt P24394 26-232; P78552 22-343) (Fc fusion)

- TF1 bioassay: activity against IL-4/IL-13 Trap 943 (fold (against Trap 943)) [1]: 2 to 3
Substance: IL-4/IL-13 Trap 1132 (from UniProt P24394 26-232; P78552 27-343) (Fc fusion)

- Kd [3]: 0.009 nM
- Kd [4]: 1 nM
- Kd [5]: 3.4 nM
Substance: 125I-CNTF (ligand)

- IL-1-dependent production of IL-6 by MRC5 cells: IL-1 concentration blocked [6]: 10 to 20 pM
Substance: IL-1-RI.Fc (from UniProt P14778 18-336) (Fc fusion)
